Each block holds one binder with its values, some of them ahead of it. Numbered stars: 1 amine (or outer) side, 2 acyl side, 3 side chain; on linkers, the order of the positions; unused ones are H or OH. Square brackets hold non-standard residues; d marks the D form. * marks the point of attachment. Hyp(Bzl) = O-benzyl-trans-4-hydroxyproline, O=C([C@@H]1C[C@@H](OCc2ccccc2)CN1[*:1])[*:2]; pY = N[C@@H](Cc1ccc(OP(=O)(O)O)cc1)C(=O)O; Phe(4-Cl) = N[C@@H](Cc1ccc(Cl)cc1)C(=O)O; Pro(4S-NH2) = N[C@@H]1CN[C@H](C(=O)O)C1; Phe(2-F) = N[C@@H](Cc1ccccc1F)C(=O)O; Arg(Me) = CNC(=N)NCCC[C@H](N)C(=O)O; Hyp = O=C(O)[C@@H]1C[C@@H](O)CN1; dNMeF = CN[C@H](Cc1ccccc1)C(=O)O; Orn = NCCC[C@H](N)C(=O)O; Aib = CC(C)(N)C(=O)O; Glycolyl = O=C(CO)*; Ahx = NCCCCCC(=O)O; azaGly = NNC(=O)O
Target: human OT7T175 (metastin receptor) (human) (UniProt Q969F8)
Experiment: cell-based or functional assay

human OT7T175 (metastin receptor) (human), sequence (Q969F8 whole entry L364H): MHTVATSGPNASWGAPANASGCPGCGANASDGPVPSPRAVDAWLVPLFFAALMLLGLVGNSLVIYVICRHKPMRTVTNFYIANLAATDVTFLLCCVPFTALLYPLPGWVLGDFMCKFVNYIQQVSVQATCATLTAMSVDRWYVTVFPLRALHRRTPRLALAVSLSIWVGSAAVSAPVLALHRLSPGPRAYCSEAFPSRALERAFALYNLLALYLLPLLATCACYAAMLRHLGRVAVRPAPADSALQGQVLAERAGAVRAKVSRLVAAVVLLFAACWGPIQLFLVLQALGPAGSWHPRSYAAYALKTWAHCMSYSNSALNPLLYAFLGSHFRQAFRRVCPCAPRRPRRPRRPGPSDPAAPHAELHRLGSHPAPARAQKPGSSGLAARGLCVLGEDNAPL

B3: des(1)-Glycoloyl-[D-Tyr2,Hyp3,Thr5,AzaGly7,Arg(Me)9,Trp10]MS10 (peptide)
peptide: Glycolyl-[dY][Hyp]NTF[azaGly]L[Arg(Me)]W-NH2
SMILES: CNC(=N)NCCC[C@H](NC(=O)[C@H](CC(C)C)NC(=O)NNC(=O)[C@H](Cc1ccccc1)NC(=O)[C@@H](NC(=O)[C@H](CC(N)=O)NC(=O)[C@@H]1C[C@@H](O)CN1C(=O)[C@@H](Cc1ccc(O)cc1)NC(=O)CO)[C@@H](C)O)C(=O)N[C@@H](Cc1c[nH]c2ccccc12)C(N)=O
- intracellular Ca ion level-increasing activity [specific activity to Metastin (1-54)] (relative to Metastin (1-54)): 1.5

B4: des(1)-Ac-[D-Tyr2,Hyp3,Thr5,Phe(4Cl)6,AzaGly7,Arg(Me)9,Trp10]MS10 (peptide)
peptide: Ac-[dY][Hyp]NT[Phe(4-Cl)][azaGly]L[Arg(Me)]W-NH2
SMILES: CNC(=N)NCCC[C@H](NC(=O)[C@H](CC(C)C)NC(=O)NNC(=O)[C@H](Cc1ccc(Cl)cc1)NC(=O)[C@@H](NC(=O)[C@H](CC(N)=O)NC(=O)[C@@H]1C[C@@H](O)CN1C(=O)[C@@H](Cc1ccc(O)cc1)NC(C)=O)[C@@H](C)O)C(=O)N[C@@H](Cc1c[nH]c2ccccc12)C(N)=O
- intracellular Ca ion level-increasing activity [specific activity to Metastin (1-54)] (relative to Metastin (1-54)): 1.5

B6: des(1)-Ac-[D-Tyr2,D-NMePhe3,Thr5,AzaGly7,Arg(Me)9,Trp10]MS10 (peptide)
peptide: Ac-[dY][dNMeF]NTF[azaGly]L[Arg(Me)]W-NH2
SMILES: CNC(=N)NCCC[C@H](NC(=O)[C@H](CC(C)C)NC(=O)NNC(=O)[C@H](Cc1ccccc1)NC(=O)[C@@H](NC(=O)[C@H](CC(N)=O)NC(=O)[C@@H](Cc1ccccc1)N(C)C(=O)[C@@H](Cc1ccc(O)cc1)NC(C)=O)[C@@H](C)O)C(=O)N[C@@H](Cc1c[nH]c2ccccc12)C(N)=O
- intracellular Ca ion level-increasing activity [specific activity to Metastin (1-54)] (relative to Metastin (1-54)): 1.8

B8: des(1-2)-Ac-[Acp3,Thr5,AzaGly7,Arg(Me)9,Trp10]MS10 (peptide)
peptide: Ac-[Ahx]NTF[azaGly]L[Arg(Me)]W-NH2
SMILES: CNC(=N)NCCC[C@H](NC(=O)[C@H](CC(C)C)NC(=O)NNC(=O)[C@H](Cc1ccccc1)NC(=O)[C@@H](NC(=O)[C@H](CC(N)=O)NC(=O)CCCCCNC(C)=O)[C@@H](C)O)C(=O)N[C@@H](Cc1c[nH]c2ccccc12)C(N)=O
- intracellular Ca ion level-increasing activity [specific activity to Metastin (1-54)] (relative to Metastin (1-54)): 3.7

B10: des(1)-Ac-[D-Tyr2,Aib3,Thr5,Phe(2F)6,AzaGly7,Arg(Me)9,Trp10]MS10 (peptide)
peptide: Ac-[dY][Aib]NT[Phe(2-F)][azaGly]L[Arg(Me)]W-NH2
SMILES: CNC(=N)NCCC[C@H](NC(=O)[C@H](CC(C)C)NC(=O)NNC(=O)[C@H](Cc1ccccc1F)NC(=O)[C@@H](NC(=O)[C@H](CC(N)=O)NC(=O)C(C)(C)NC(=O)[C@@H](Cc1ccc(O)cc1)NC(C)=O)[C@@H](C)O)C(=O)N[C@@H](Cc1c[nH]c2ccccc12)C(N)=O
- intracellular Ca ion level-increasing activity [specific activity to Metastin (1-54)] (relative to Metastin (1-54)): 3.4

Results, then the binder that gave them:

- intracellular Ca ion level-increasing activity [specific activity to Metastin (1-54)] (relative to Metastin (1-54)): 1
B1: des(1)-Ac-[D-Tyr2,Hyp(Bzl)3,Thr5,AzaGly7,Arg(Me)9,Trp10]MS10 (peptide)
peptide: Ac-[dY][Hyp(Bzl)]NTF[azaGly]L[Arg(Me)]W-NH2
SMILES: CNC(=N)NCCC[C@H](NC(=O)[C@H](CC(C)C)NC(=O)NNC(=O)[C@H](Cc1ccccc1)NC(=O)[C@@H](NC(=O)[C@H](CC(N)=O)NC(=O)[C@@H]1C[C@@H](OCc2ccccc2)CN1C(=O)[C@@H](Cc1ccc(O)cc1)NC(C)=O)[C@@H](C)O)C(=O)N[C@@H](Cc1c[nH]c2ccccc12)C(N)=O

- intracellular Ca ion level-increasing activity [specific activity to Metastin (1-54)] (relative to Metastin (1-54)): 1.9
B2: des(1)-Ac-[D-Tyr2,Orn3,Thr5,AzaGly7,Arg(Me)9,Trp10]MS10 (peptide)
peptide: Ac-[dY][Orn]NTF[azaGly]L[Arg(Me)]W-NH2
SMILES: CNC(=N)NCCC[C@H](NC(=O)[C@H](CC(C)C)NC(=O)NNC(=O)[C@H](Cc1ccccc1)NC(=O)[C@@H](NC(=O)[C@H](CC(N)=O)NC(=O)[C@H](CCCN)NC(=O)[C@@H](Cc1ccc(O)cc1)NC(C)=O)[C@@H](C)O)C(=O)N[C@@H](Cc1c[nH]c2ccccc12)C(N)=O

- intracellular Ca ion level-increasing activity [specific activity to Metastin (1-54)] (relative to Metastin (1-54)): 2.1
B5: des(1)-Ac-[D-Tyr2,Pro(4NH2)3,Thr5,AzaGly7,Arg(Me)9,Trp10]MS10 (peptide)
peptide: Ac-[dY][Pro(4S-NH2)]NTF[azaGly]L[Arg(Me)]W-NH2
SMILES: CNC(=N)NCCC[C@H](NC(=O)[C@H](CC(C)C)NC(=O)NNC(=O)[C@H](Cc1ccccc1)NC(=O)[C@@H](NC(=O)[C@H](CC(N)=O)NC(=O)[C@@H]1C[C@H](N)CN1C(=O)[C@@H](Cc1ccc(O)cc1)NC(C)=O)[C@@H](C)O)C(=O)N[C@@H](Cc1c[nH]c2ccccc12)C(N)=O

- intracellular Ca ion level-increasing activity [specific activity to Metastin (1-54)] (relative to Metastin (1-54)): 1.3
B7: des(1)-Ac-[D-Tyr2,Tyr(PO3H2)3,Thr5,AzaGly7,Arg(Me)9,Trp10]MS10 (peptide)
peptide: Ac-[dY][pY]NTF[azaGly]L[Arg(Me)]W-NH2
SMILES: CNC(=N)NCCC[C@H](NC(=O)[C@H](CC(C)C)NC(=O)NNC(=O)[C@H](Cc1ccccc1)NC(=O)[C@@H](NC(=O)[C@H](CC(N)=O)NC(=O)[C@H](Cc1ccc(OP(=O)(O)O)cc1)NC(=O)[C@@H](Cc1ccc(O)cc1)NC(C)=O)[C@@H](C)O)C(=O)N[C@@H](Cc1c[nH]c2ccccc12)C(N)=O

- intracellular Ca ion level-increasing activity [specific activity to Metastin (1-54)] (relative to Metastin (1-54)): 1.8
B9: des(1-2)-Ac-[D-Tyr3,Thr5,AzaGly7,Arg(Me)9,Trp10]MS10 (peptide)
peptide: Ac-[dY]NTF[azaGly]L[Arg(Me)]W-NH2
SMILES: CNC(=N)NCCC[C@H](NC(=O)[C@H](CC(C)C)NC(=O)NNC(=O)[C@H](Cc1ccccc1)NC(=O)[C@@H](NC(=O)[C@H](CC(N)=O)NC(=O)[C@@H](Cc1ccc(O)cc1)NC(C)=O)[C@@H](C)O)C(=O)N[C@@H](Cc1c[nH]c2ccccc12)C(N)=O

Reference: patent US20090105152A1
